{"source": "paper PMC8978962", "target": "CitbHLH2-YFPN (citrus)"}
{"substance": "CitMYB52-YFPC (natural protein)", "values": [{"measurement": "CitALMT promoter activity (LUC/REN, dual-luciferase assay in tobacco leaves) with the combination of CitMYB52 and CitbHLH2, against the empty vector SK set as 1", "value": 9.8, "unit": "fold"}]}
